Key:
Test in all cases: EMSA
Settings in all cases: EMSA kit (Biyuntian): 50 ng biotin-labeled DNA, 2 uL binding buffer, 2 ug protein; competitors 5 ug unlabeled DNA; buffer composition, pH and temperature not …
[1] = target: T1, Gsm1p (Pichia pastoris (Komagataella phaffii), strain SMD1168?) (UniProt C4R1K8)
T1 sequence: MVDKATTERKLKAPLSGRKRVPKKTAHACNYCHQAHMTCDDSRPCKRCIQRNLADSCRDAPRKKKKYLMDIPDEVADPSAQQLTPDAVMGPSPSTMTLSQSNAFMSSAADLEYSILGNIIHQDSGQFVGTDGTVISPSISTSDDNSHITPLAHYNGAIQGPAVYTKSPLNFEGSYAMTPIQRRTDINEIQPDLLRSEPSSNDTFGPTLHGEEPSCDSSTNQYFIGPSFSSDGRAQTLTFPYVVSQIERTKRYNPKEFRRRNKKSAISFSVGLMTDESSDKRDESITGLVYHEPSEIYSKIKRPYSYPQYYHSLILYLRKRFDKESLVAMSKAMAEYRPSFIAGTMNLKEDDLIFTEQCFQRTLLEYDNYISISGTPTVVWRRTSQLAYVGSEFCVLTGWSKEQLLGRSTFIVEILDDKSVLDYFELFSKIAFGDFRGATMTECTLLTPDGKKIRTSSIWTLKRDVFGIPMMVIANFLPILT

[2] = target: T2, Hot1p (Pichia pastoris (Komagataella phaffii), strain SMD1168?) (UniProt C4QW90)
T2 sequence: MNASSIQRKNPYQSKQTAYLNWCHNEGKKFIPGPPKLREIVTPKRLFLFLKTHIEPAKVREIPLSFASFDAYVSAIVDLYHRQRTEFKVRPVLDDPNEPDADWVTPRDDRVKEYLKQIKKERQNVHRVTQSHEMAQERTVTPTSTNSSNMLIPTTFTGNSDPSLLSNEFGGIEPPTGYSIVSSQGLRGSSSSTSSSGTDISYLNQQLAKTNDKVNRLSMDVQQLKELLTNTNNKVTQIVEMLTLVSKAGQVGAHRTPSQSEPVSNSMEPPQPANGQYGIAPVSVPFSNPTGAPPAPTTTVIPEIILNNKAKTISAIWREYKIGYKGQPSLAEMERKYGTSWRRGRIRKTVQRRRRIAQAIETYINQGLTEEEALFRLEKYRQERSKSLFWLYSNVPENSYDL

[3] = target: T3, Loc1p (Pichia pastoris (Komagataella phaffii), cloned from P. pastoris genome, strain SMD1168?) (UniProt C4QX18)
T3 sequence: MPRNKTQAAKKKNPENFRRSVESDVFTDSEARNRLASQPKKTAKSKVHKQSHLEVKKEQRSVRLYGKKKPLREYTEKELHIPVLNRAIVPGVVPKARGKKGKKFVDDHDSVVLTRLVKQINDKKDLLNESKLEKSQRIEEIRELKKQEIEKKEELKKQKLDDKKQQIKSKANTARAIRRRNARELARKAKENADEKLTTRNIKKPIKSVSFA

Row | Sequence | binding [1] | binding [2] | binding [3]
1 | AGATCTTTTTTGTAGAAATGTCTTGGTGTCCTCGTCCAATCAGGTAGCCATCTCTGAAATATCTGGCTCCGTTGCAACTCCGAACGACCTGCTGGCAACGTAAAATTCTCCGGGGTAAAACTTAAATGTGGAGTAATGGAACCAGAAACGTCTCTTCCCTTCTCTCTCCTTCCACCGCCCGTTACCGTCCCTAGGAAATTTTAC (double strand) [pGAP-AB] | binds | binds | binds
2 | AGCAGCCCAGGGATGGAAAAGTCCCGGCCGTCGCTGGCAATAATAGCGGGCGGACGCATGTCATGAGATTATTGGAAACCACCAGAATCGAATATAAAAGGCGAACACCTTTCCCAATTTTGGTTTCTCCTGACCCAAAGACTTTAAATTTAATTTATTTGTCCCTATTTCAATCAATTGAACAACTATTTCGAAACG (double strand) [pGAP-CD] | binds | binds | no binding
3 | CATGCGTCCGCCCGCTATTATTGCCAGCGACGGCCGGGACTTTTCCATCCCTGGGCTGCTAGGTCGGGTACACGACCTCCGTTTTACCCGCAACGTAATGCTGGGAAGAGCATTGCTGCAAGGGGGCCGTAGAAGAAGCTCTCCAGCAGAGTAAAATTTCCTAGGGACGGTAACGGGCGGTGGAAGGAGAGAGAAGGGAAGAGA (double strand) [pGAP-BC] | binds | binds | binds

From PMC11267847
